{
  "source": "patent EP4696714A1",
  "about": "“PREPARATION METHOD FOR NANOBODY TARGETING TISSUE FACTOR AND CONJUGATE AND USE THEREOF” (Fudan University, priority 2023, dated 2024)",
  "key": {"[1]": {"conditions": "compared with MMDX and doxorubicin; cited from earlier work"}, "[2]": {"system": "18 human tumor cell lines", "conditions": "average against 18 human tumor cell lines; cited from earlier work"}, "[3]": {"molecular_target": "T1, human TF extracellular domain protein (TF-ECD, Met 1-Glu 251) (human, UniProt P13726 33-251)", "T1 construct": "range 1-251; also called human TF-ECD; not shown: His tag (protein captured on an NTA sensor as 'FDYKSD-01-His')", "assay": "ForteBio OCTET R2 (called SPR), method of Example 2"}, "[4]": {"molecular_target": "T2, TF on the surface of tumor cells (MDA-MB-231, HPAF-II, HCC1806, BxPC3, HCC44, PC9, H1975 and other … (UniProt P13726 33-295, limits assumed))", "T2 construct": "whole, on cells; the cell lines are human tumour lines; also called TF on cell surface; tumor cell surface TF", "assay": "flow cytometry on MDA-MB-231 cells, PE-labeled secondary antibody"}, "[5]": {"molecular_target": "T1, human TF extracellular domain protein …", "assay": "ForteBio OCTET R2; His-tagged antigen on NTA sensor, nanobody-Fc 25-1.56 nM in solution, 25°C"}, "[6]": {"system": "KRAS^G12D pancreatic cancer HPAF-II xenograft tumor", "assay": "Pancreatic cancer HPAF-II xenograft model", "type": "in vivo, Balb/c nude mice", "conditions": "3 mg/kg, single-dose, tail vein", "procedure": "Pancreatic ductal adenocarcinoma (PDAC) HPAF-II cells in logarithmic growth phase were subcutaneously inoculated into the bank of 5-week-old female Balb/c nude mice (purchased from Shanghai Sippr-BK Laboratory Animal Co., Ltd.) at a density of 2.5×10^6 cells per 200 µL serum-free medium. When tumor volume reached 100-200 mm^3, animals were randomly grouped, 8 tumors per group. The preferred TF-NDCs such as 4-A02-MMAE, 4-A02-ABD-MMAE were administered via tail vein injection at 3 mg/kg or 1 mg/kg on the day of grouping, with hIgG1-MMAE as the negative control. Only one dose was administered throughout the experiment. Tumor volume and mouse body weight were measured twice a week to plot growth curves. Tumor volume (V) was calculated using the formula: V = 1/2 × a × b^2, where a and b represent tumor length and width, respectively."}, "[7]": {"system": "HCC1954 mammary pad xenograft", "assay": "HCC1954 mammary pad xenograft experiment", "type": "in vivo", "conditions": "once a week, twice in total"}},
  "data": [
    {"molecule": "COc1cccc2c1C(=O)c1c(O)c3c(c(O)c1C2=O)C[C@@](O)(C(=O)CO)C[C@@H]3O[C@H]1C[C@H]2[C@H](O[C@@H]3[C@@H](OC)OCCN32)[C@H](C)O1", "note": "[PNU-159682]", "values": [
      {"measurement": "increase in activity", "setting": "[1]", "result": 3000, "unit": "folds"}
    ]},
    {"molecule": "CN[C@H](C(=O)N[C@H](C(=O)N(C)[C@H](/C=C(\\C)C(=O)O)C(C)C)C(C)(C)C)C(C)(C)c1ccccc1", "note": "[Taltobulin]", "values": [
      {"measurement": "IC50", "setting": "[2]", "result": 2.5, "unit": "nM"}
    ]},
    {"molecule": "original nanobody 4A02 (parental antibody 4A02, as comparator in Examples 11 and 12) (Fc fusion, not shown: Fc segment of the comparator) VHH: QVQLVESGGGLVQPGGSLSLSCTASETISSTYIMGWHRRSPGKERELVAVISGDGVTHYADFVKGRFVISRDNAKNAVYLKMNFLTPEDTAVYYCYAAGRWNHWGQGTQVTVSS", "values": [
      {"measurement": "Kd", "setting": "[3]", "result": 0.29, "unit": "nM"}
    ]},
    {"molecule": "5-H3-FC1 (chimeric nanobody: 5-H3 VHH fused with human Fc mutant fragment FC1) (Fc fusion, built from the VHH and FC1) QVQLVESGGGLVQPGGSLRLSCVASGFTLANYAIGFYRRAPGKGREGVSCISRSDGDTYHVDSVKGRFTVSRDNAKNTAYLQMNSLVPEDTGVYYCRATEWCGVQDPHGYWGQGTQVTVSSEPKSSDKTHTCPPCPAPEFEGGPSVFLFPPKPKDTLMISRTPEVTCVVVDVSHEDPEVKFNWYVDGVEVHNAKTKPREEQYNSTYRVVSVLTVLHQDWLNGKEYKCKVSNKALPASIEKTISKAKGQPREPQVYTLPPSRDELTKNQVSLTCLVKGFYPSDIAVEWESNGQPENNYKTTPPVLDSDGSFFLYSKLTVDKSRWQQGNVFSCSVMHEALHNHYTQKSLSLSPGK", "values": [
      {"measurement": "EC50", "setting": "[4]", "result": 0.25, "unit": "µg/mL"},
      {"measurement": "Kd", "setting": "[5]", "result": 0.45, "unit": "nM"}
    ]},
    {"molecule": "5-C12-FC1 (chimeric nanobody: 5-C12 VHH fused with human Fc mutant fragment FC1) (Fc fusion, built from the VHH and FC1) QVQLVESGGGLAQAGGSLRLSCAGSGRTFSTDAMGWFRQAPGKEREFVAAINWSGGSTYYADSVKGRFTISRDNAKNTVYLQMNSVKPEDTAVYYCVADSLLALLDGSRGGPGTDSDSWGQGTQVTVSSEPKSSDKTHTCPPCPAPEFEGGPSVFLFPPKPKDTLMISRTPEVTCVVVDVSHEDPEVKFNWYVDGVEVHNAKTKPREEQYNSTYRVVSVLTVLHQDWLNGKEYKCKVSNKALPASIEKTISKAKGQPREPQVYTLPPSRDELTKNQVSLTCLVKGFYPSDIAVEWESNGQPENNYKTTPPVLDSDGSFFLYSKLTVDKSRWQQGNVFSCSVMHEALHNHYTQKSLSLSPGK", "values": [
      {"measurement": "EC50", "setting": "[4]", "result": 0.47, "unit": "µg/mL"},
      {"measurement": "Kd", "setting": "[5]", "result": 0.001, "unit": "nM"}
    ]},
    {"molecule": "4-A02-ABD-MMAE: NDC of 4-A02-ABD (monomer) coupled to mc-vc-MMAE, DAR1 (conjugate) QVQLVESGGGLVQPGGSLSLSCTASETISSTYIMGWHRRSPGKERELVAVISGDGVTHYADFVKGRFVISRDNAKNAVYLKMNFLTPEDTAVYYCYAAGRWNHWGQGTQVTVSSGGGGSGGGGSGGGGSQHDEAVDANSLAEAKVLANRELDKYGVSDYYKNLINNAKTVEGVKALIDEILAALPAAACAAAHHHHHH", "values": [
      {"measurement": "anti-tumor effect (tumor volume)", "setting": "[6]", "result": "complete tumor regression"},
      {"measurement": "inhibition of tumor growth", "setting": "[7]; 3 mg/kg intravenous", "result": "significant inhibition of tumor growth and caused tumor regression"}
    ]},
    {"molecule": "4-A02-DXd (conjugate) QVQLVESGGGLVQPGGSLSLSCTASETISSTYIMGWHRRSPGKERELVAVISGDGVTHYADFVKGRFVISRDNAKNAVYLKMNFLTPEDTAVYYCYAAGRWNHWGQGTQVTVSSEPKSSDKTHTCPPCPAPEFEGGPSVFLFPPKPKDTLMISRTPEVTCVVVDVSHEDPEVKFNWYVDGVEVHNAKTKPREEQYNSTYRVVSVLTVLHQDWLNGKEYKCKVSNKALPASIEKTISKAKGQPREPQVYTLPPSRDELTKNQVSLTCLVKGFYPSDIAVEWESNGQPENNYKTTPPVLDSDGSFFLYSKLTVDKSRWQQGNVFSCSVMHEALHNHYTQKSLSLSPGK", "values": [
      {"measurement": "inhibition of tumor growth", "setting": "[7]; 10 mg/kg intravenous", "result": "significant inhibition of tumor growth and caused tumor regression"}
    ]},
    {"molecule": "F1-A01-FC1 (chimeric nanobody: F1-A01 VHH fused with human Fc mutant fragment FC1) (Fc fusion, it is built from the VHH and FC1 as in 4-A02-FC1) EVQLVESGGGLVQAGGSLRLSCAASGRAFSAYAMGWFRQAPGKEREFVAAISWSGGSTYYADSVRGRFTISRDNTKNTVYLQMNSLKPEDTAVYYCNADSLLSLLDGSRGGPGTDSGSWGQGTQVTVSSEPKSSDKTHTCPPCPAPEFEGGPSVFLFPPKPKDTLMISRTPEVTCVVVDVSHEDPEVKFNWYVDGVEVHNAKTKPREEQYNSTYRVVSVLTVLHQDWLNGKEYKCKVSNKALPASIEKTISKAKGQPREPQVYTLPPSRDELTKNQVSLTCLVKGFYPSDIAVEWESNGQPENNYKTTPPVLDSDGSFFLYSKLTVDKSRWQQGNVFSCSVMHEALHNHYTQKSLSLSPGK", "values": [
      {"measurement": "EC50", "setting": "[4]", "result": 0.75, "unit": "µg/mL"},
      {"measurement": "Kd", "setting": "[5]", "result": 4.37, "unit": "nM"}
    ]}
  ]
}
